From patent US20200024330A1

Legend:
Assay in all cases: cell-based or functional assay
[1] = molecular target: HIV-1 92BR020 envelope protein (Env) on pseudovirus (HIV-1)
[2] = molecular target: HIV-1 Env of isolate MGRM-D-024 (clade D) (HIV-1)
[3] = molecular target: HIV-1 Env of isolate 92UG001 (clade D) (HIV-1)
[4] = molecular target: HIV-1 Env of isolate MGRM-G-024 (clade G pseudovirus) (HIV-1)
[5] = molecular target: HIV-1 Env of isolate MGRM-D-001 (clade D) (HIV-1)
[6] = molecular target: HIV-1 MGRM-F1-014 Env (pseudovirus) (HIV-1)
[7] = molecular target: HIV-1 93UG077 envelope glycoprotein (Env) (HIV-1)
[8] = molecular target: HIV-1 94UG103 envelope glycoprotein (Env) (HIV-1)
[9] = molecular target: HIV-1 Env of isolate MGRM-G-015 (clade G pseudovirus) (HIV-1)
[10] = molecular target: HIV-1 Env of isolate MGRM-D-021 (clade D) (HIV-1)
[11] = molecular target: HIV-1 92RW009 envelope glycoprotein (Env) (HIV-1)
[12] = molecular target: HIV-1 MGRM-A-009 envelope glycoprotein (Env) (HIV-1)
[13] = molecular target: HIV-1 MGRM-C-019 Env (HIV-1)
[14] = molecular target: HIV-1 Env of pseudovirus JRCSF, clade B (HIV-1) (UniProt P20871)
[15] = molecular target: HIV-1 MGRM-C-005 Env (HIV-1)
[16] = molecular target: HIV-1 98CN006 envelope glycoprotein (Env) on pseudovirus (HIV-1)
[17] = molecular target: HIV-1 Env of isolate MGRM-D-022 (clade D) (HIV-1)
[18] = molecular target: HIV-1 MGRM-A-007 envelope glycoprotein (Env) (HIV-1)
[19] = molecular target: HIV-1 MGRM-C-015 Env (HIV-1)
[20] = molecular target: HIV-1 JR-CSF envelope protein (Env) on pseudovirus (HIV-1) (UniProt P20871)
[21] = molecular target: HIV-1 93RW029 envelope glycoprotein (Env) (HIV-1)
[22] = molecular target: HIV-1 LAVI_C3 Env (HIV-1)
[23] = molecular target: HIV-1 Env of isolate SF162 (HIV-1) (UniProt P19549)
[24] = molecular target: HIV-1 MGRM-C-020 Env (HIV-1)
[25] = molecular target: HIV-1 Env of isolate MGRM-D-016 (HIV-1)
[26] = molecular target: HIV-1 Env of isolate MGRM-F1-004 (subtype F), on pseudovirus (HIV-1)
[27] = molecular target: HIV-1 Env of isolate NL43 (HIV-1)
[28] = molecular target: HIV-1 JR-CSF Env N188A (HIV-1 (isolate JR-CSF)) (UniProt P20871)
[29] = molecular target: HIV-1 Env of isolate CAAN.A2 (HIV-1)
[30] = molecular target: HIV-1 Env of isolate TRO.11 (HIV-1)
[31] = molecular target: HIV-1 Env of isolate MGRM-AE-003 (CRF01_AE), on pseudovirus (HIV-1)
[32] = molecular target: HIV-1 Env of isolate MGRM-C-024 (HIV-1)
[33] = molecular target: HIV-1 MGRM-C-028 envelope glycoprotein (Env) on pseudovirus (HIV-1)
[34] = molecular target: HIV-1 Env of isolate MGRM-F1-006 (subtype F), on pseudovirus (HIV-1)
[35] = molecular target: HIV-1 Env of isolate 98CN009 (HIV-1)
[36] = molecular target: HIV-1 Env of isolate MGRM-Chronic-B-004 (HIV-1)
[37] = molecular target: HIV-1 Env of isolate MGRM-D-005 (HIV-1)
[38] = molecular target: HIV-1 Env of isolate CMU02 (CRF01_AE), on pseudovirus (HIV-1)
[39] = molecular target: HIV-1 Env of isolate MGRM-F1-016 (subtype F), on pseudovirus (HIV-1)
[40] = molecular target: HIV-1 JR-CSF Env D113A (HIV-1 (isolate JR-CSF)) (UniProt P20871)
[41] = molecular target: HIV-1 Env of isolate MGRM-C-019 (HIV-1)

Chain of 1443_C16 (PG16) (TCN-116) (antibody) (VH): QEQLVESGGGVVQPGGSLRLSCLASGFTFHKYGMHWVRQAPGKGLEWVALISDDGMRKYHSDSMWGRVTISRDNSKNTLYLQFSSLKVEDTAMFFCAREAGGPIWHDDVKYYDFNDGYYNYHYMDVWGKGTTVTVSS
Chain of 1443_C16 (PG16) (TCN-116) (antibody) (VL): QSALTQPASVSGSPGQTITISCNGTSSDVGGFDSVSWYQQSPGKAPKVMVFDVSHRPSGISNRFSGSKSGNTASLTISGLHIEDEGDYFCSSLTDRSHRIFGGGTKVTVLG

Substance: b12 (antibody)
- neutralization IC50 [1]: 27.5 mg/L
- IC50 (µg/ml), pseudovirus neutralization [2]: 5.92 µg/mL
- IC50 (µg/ml), pseudovirus neutralization [3]: 1.01 µg/mL
- IC50 (µg/ml), pseudovirus neutralization [4]: 2.38 µg/mL
- IC50 (µg/ml), pseudovirus neutralization [5]: > 50 µg/mL
- IC50 (µg/ml), pseudovirus neutralization [6]: > 50 µg/mL
- IC50 (µg/ml), pseudovirus neutralization [7]: 47 µg/mL
- IC50 (µg/ml), pseudovirus neutralization [8]: 6.92 µg/mL
- IC50 (µg/ml), pseudovirus neutralization [9]: > 50 µg/mL
- IC50 (µg/ml), pseudovirus neutralization [10]: 5.23 µg/mL
- IC50 (µg/ml), pseudovirus neutralization [11]: > 50 µg/mL
- IC50 (µg/ml), pseudovirus neutralization [12]: 4.34 µg/mL
- IC50 [13]: > 50 mg/L
- IC50 (µg/ml), pseudovirus neutralization [14]: 0.21 µg/mL
- IC50 [15]: 2.66 mg/L
- IC50 (µg/ml), pseudovirus neutralization [16]: > 50 µg/mL
- IC50 (µg/ml), pseudovirus neutralization [17]: 17.6 µg/mL
- IC50 (µg/ml), pseudovirus neutralization [18]: > 50 µg/mL
- IC50 [19]: 13.3 mg/L
- neutralization IC50 [20]: 0.16 mg/L
- IC50 (µg/ml), pseudovirus neutralization [21]: > 50 µg/mL
- IC50 [22]: 0.94 mg/L
- IC50 (µg/ml), pseudovirus neutralization [23]: 0.02 µg/mL
- IC50 [24]: > 50 mg/L

Substance: 1443_C16 (PG16) (TCN-116) (antibody)
- neutralization IC50 [1]: > 50 mg/L
- IC50 (µg/ml), pseudovirus neutralization [2]: 0.02 µg/mL
- IC50 (µg/ml), pseudovirus neutralization [3]: > 50 µg/mL
- IC50 (µg/ml), pseudovirus neutralization [4]: 0.01 µg/mL
- IC50 (µg/ml), pseudovirus neutralization [5]: > 50 µg/mL
- IC50 (µg/ml), pseudovirus neutralization [6]: 0.01 µg/mL
- IC50 (µg/ml), pseudovirus neutralization [7]: > 50 µg/mL
- IC50 (µg/ml), pseudovirus neutralization [8]: 0.04 µg/mL
- IC50 (µg/ml), pseudovirus neutralization [9]: 5.33 µg/mL
- IC50 (µg/ml), pseudovirus neutralization [10]: > 50 µg/mL
- IC50 (µg/ml), pseudovirus neutralization [11]: 0.11 µg/mL
- IC50 (µg/ml), pseudovirus neutralization [12]: 0.01 µg/mL
- IC50 [13]: 0.002 mg/L
- IC50 (µg/ml), pseudovirus neutralization [14]: 0.001 µg/mL
- IC50 [15]: 2.55 mg/L
- IC50 (µg/ml), pseudovirus neutralization [16]: > 50 µg/mL
- IC50 (µg/ml), pseudovirus neutralization [17]: > 50 µg/mL
- IC50 (µg/ml), pseudovirus neutralization [18]: 5.91 µg/mL
- IC50 [19]: 0.26 mg/L
- neutralization IC50 [20]: < 0.0025 mg/L
- IC50 (µg/ml), pseudovirus neutralization [21]: 3.83 µg/mL
- IC50 [22]: 9.55 mg/L
- IC50 (µg/ml), pseudovirus neutralization [23]: > 50 µg/mL
- IC50 [24]: > 50 mg/L

Substance: 1495_C14 (PGC14) (antibody)
- neutralization IC50 [1]: 0.637 mg/L
- IC50 (µg/ml), pseudovirus neutralization [2]: > 50 µg/mL
- IC50 (µg/ml), pseudovirus neutralization [3]: > 50 µg/mL
- IC50 (µg/ml), pseudovirus neutralization [4]: > 50 µg/mL
- IC50 (µg/ml), pseudovirus neutralization [5]: > 50 µg/mL
- IC50 (µg/ml), pseudovirus neutralization [6]: > 50 µg/mL
- IC50 (µg/ml), pseudovirus neutralization [7]: > 50 µg/mL
- IC50 (µg/ml), pseudovirus neutralization [8]: > 50 µg/mL
- IC50 (µg/ml), pseudovirus neutralization [9]: > 50 µg/mL
- IC50 (µg/ml), pseudovirus neutralization [10]: > 50 µg/mL
- IC50 (µg/ml), pseudovirus neutralization [11]: > 50 µg/mL
- IC50 (µg/ml), pseudovirus neutralization [12]: > 50 µg/mL
- IC50 [13]: 12 mg/L
- IC50 (µg/ml), pseudovirus neutralization [14]: 15 µg/mL
- IC50 [15]: > 50 mg/L
- IC50 (µg/ml), pseudovirus neutralization [16]: > 50 µg/mL
- IC50 (µg/ml), pseudovirus neutralization [17]: > 50 µg/mL
- IC50 (µg/ml), pseudovirus neutralization [18]: > 50 µg/mL
- IC50 [19]: > 50 mg/L
- neutralization IC50 [20]: > 50 mg/L
- IC50 (µg/ml), pseudovirus neutralization [21]: 42 µg/mL
- IC50 [22]: 12 mg/L
- IC50 (µg/ml), pseudovirus neutralization [23]: < 0.0025 µg/mL
- IC50 [24]: > 50 mg/L

Substance: 5147_N06 (PGT-130) (antibody)
- IC50 [25]: > 50 mg/L
- IC50, pseudovirus neutralization [26]: 0.023 mg/L
- IC50 [27]: > 50 mg/L
- Fold IC50 increase relative to wild-type [28]: 1 fold
- IC50 [29]: > 50 mg/L
- neutralization IC50 [5]: > 10 mg/L
- neutralization IC80 [5]: > 10 mg/L
- neutralization IC90 [5]: > 10 mg/L
- neutralization IC95 [5]: > 10 mg/L
- IC50 [30]: 0.257 mg/L
- IC50, single-round pseudovirus neutralization [31]: 0.337 mg/L
- IC50 [32]: > 50 mg/L
- IC50 (ug/ml), neutralizing activity [33]: > 10 µg/mL
- IC50, pseudovirus neutralization [34]: > 50 mg/L
- IC50 [35]: 0.136 mg/L
- IC50 [36]: 0.01 mg/L
- IC50 [37]: > 50 mg/L
- IC50, single-round pseudovirus neutralization [38]: > 50 mg/L
- IC50, pseudovirus neutralization [39]: > 50 mg/L
- Fold IC50 increase relative to wild-type [40]: 0.8 fold
- IC50 [41]: 0.01 mg/L
